Positions count from the first letter of the chain named. Read-outs that look alike come from different tables or passages of the source.
Tests used:
[1] = biological target: T1, human IL2 receptor on NKL cells (human, UniProt P01589 22-272; P14784 27-551; P31785 23-369); experiment: FACS on hIL2-deprived NKL cells without hIL2; fluorescence-labeled goat anti-human IgG detection
T1 construct: whole, on cells; also called hIL2 receptor; IL2 receptor component(s)
T1 sequence (looked up) 1: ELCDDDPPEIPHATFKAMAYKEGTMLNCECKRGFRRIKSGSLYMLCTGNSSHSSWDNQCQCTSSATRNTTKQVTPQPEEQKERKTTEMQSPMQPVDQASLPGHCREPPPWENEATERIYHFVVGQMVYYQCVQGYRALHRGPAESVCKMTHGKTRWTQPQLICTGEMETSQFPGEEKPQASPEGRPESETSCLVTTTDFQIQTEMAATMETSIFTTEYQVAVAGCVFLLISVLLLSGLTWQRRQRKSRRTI
T1 sequence (looked up) 2: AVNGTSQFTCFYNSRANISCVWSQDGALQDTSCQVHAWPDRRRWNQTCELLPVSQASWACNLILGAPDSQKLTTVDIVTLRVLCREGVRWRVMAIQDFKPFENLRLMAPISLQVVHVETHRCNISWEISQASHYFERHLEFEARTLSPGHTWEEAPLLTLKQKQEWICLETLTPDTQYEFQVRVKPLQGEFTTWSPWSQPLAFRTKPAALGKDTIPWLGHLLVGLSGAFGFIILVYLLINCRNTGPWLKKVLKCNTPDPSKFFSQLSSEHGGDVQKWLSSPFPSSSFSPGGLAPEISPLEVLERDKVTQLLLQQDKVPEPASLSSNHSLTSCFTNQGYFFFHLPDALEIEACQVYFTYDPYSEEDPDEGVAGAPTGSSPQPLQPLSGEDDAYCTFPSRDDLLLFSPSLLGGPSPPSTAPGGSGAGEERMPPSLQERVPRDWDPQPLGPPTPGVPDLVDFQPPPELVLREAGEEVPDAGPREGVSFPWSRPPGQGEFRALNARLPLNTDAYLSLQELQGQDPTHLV
T1 sequence (looked up) 3: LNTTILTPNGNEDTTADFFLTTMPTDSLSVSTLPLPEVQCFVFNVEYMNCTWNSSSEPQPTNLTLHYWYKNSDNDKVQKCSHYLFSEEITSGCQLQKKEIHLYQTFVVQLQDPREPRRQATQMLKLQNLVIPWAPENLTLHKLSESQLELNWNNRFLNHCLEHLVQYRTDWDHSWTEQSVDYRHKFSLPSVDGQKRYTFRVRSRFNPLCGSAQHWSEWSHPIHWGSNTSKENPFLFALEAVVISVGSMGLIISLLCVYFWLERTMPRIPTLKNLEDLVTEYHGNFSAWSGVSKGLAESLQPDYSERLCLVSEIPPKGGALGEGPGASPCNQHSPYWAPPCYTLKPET

[2] = biological target: T2, human interleukin-2 (hIL2) (human, UniProt P60568 21-153); experiment: BiaCore, format not described
T2 construct: mature; The two home-made supplies carry a C-terminal hexahistidine tag, and the E. coli one also an N-terminal Met; also called recombinant human hIL2; hIL2 antigen
T2 sequence (P60568 21-153): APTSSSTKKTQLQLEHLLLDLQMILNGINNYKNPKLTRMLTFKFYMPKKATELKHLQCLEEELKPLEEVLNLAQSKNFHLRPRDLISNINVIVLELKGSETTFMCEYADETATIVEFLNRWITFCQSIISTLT

[3] = biological target: T2, human interleukin-2 (hIL2); experiment: cell-based or functional assay
[4] = biological target: T2, human interleukin-2 (hIL2); experiment: cell-based or functional assay; remark: listed apart in the source
[5] = biological target: T2, human interleukin-2 (hIL2); experiment: Cell Surface (binding to cell surface-associated hIL2), method not described; Cell Surface, not BiaCore
[6] = biological target: T3, Proleukin (formulated recombinant hIL2, expressed in E. coli), PEG-biotinylated (human, UniProt P60568 22-153, PEG-biotinylated (site not stated)); experiment: ELISA: PEG-biotinylated Proleukin on streptavidin plate, 293 cell supernatant antibody, anti-human IgG-HRP, ABTS, absorbance at 405 nm
T3 construct: also called PEG-biotinylated Proleukin; hIL2 antigen
T3 sequence (P60568 other isoform, or with tags, fused parts or gaps limits assumed): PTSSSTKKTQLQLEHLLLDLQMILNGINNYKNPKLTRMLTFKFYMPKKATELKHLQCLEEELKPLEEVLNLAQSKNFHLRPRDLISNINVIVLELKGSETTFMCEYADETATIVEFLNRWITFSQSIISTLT

[7] = biological target: T3, Proleukin (formulated recombinant hIL2, …); experiment: as above; remark: listed apart in the source
[8] = biological target: T3, Proleukin (formulated recombinant hIL2, …); experiment: as above; remark: listed apart in the source
[9] = biological target: T2, human interleukin-2 (hIL2); experiment: FACS on NKL cells loaded with recombinant hIL2

B1: Anti-IL2 (humanized anti-IL2 IgG1 antibody) (antibody, V domains shown)
VH: EVQLVESGGGLVQPGGSLRLSCAASGFTFSSYTLAWVRQAPGKGLEWVAAIDSSSYTYSPDTVRGRFTISRDNAKNSLYLQMNSLRAEDTAVYYCARDSNWDALDYWGQGTTVTVSS
VL: DIQMTQSPSSLSASVGDRVTITCKASQNVGTNVGWYQQKPGKAPKALIYSASFRYSGVPSRFSGSGSGTDFTLTISSLQPEDFATYYCQQYYTYPYTFGGGTKVEIKR
notes: IgG1; Its VL carries KAPKA in framework 2
**Q.** Does B1 bind [1]?
**A.** no binding

**Q.** What about the Kd [2] of the same binder?
**A.** 680 pM

**Q.** What about the “IC50, IL2-dependent proliferation of primary human NK cells (donor shown)” value [3] of the same binder?
**A.** ~300 pM

**Q.** What about the “IC50 of IL2-dependent CD124 cell surface expression on CTLL-2 cells” value [3] of the same binder?
**A.** ~330 pM

**Q.** What about the “IC50, IFN-gamma production by Human NK Cells” value [4] of the same binder?
**A.** 130 pM

**Q.** And the “IC50, Proliferation of Human Primary NK Cells” value [4]?
**A.** 100 pM

**Q.** And the Kd [5]?
**A.** 2500 pM

B2: HMH + hHC (VL with human frameworks 1 and 3, mouse framework 2) (antibody, V domains shown)
VH: B1 VH
VL: DIQMTQSPSSLSASVGDRVTITCKASQNVGTNVGWYQQKPGQSPKALIYSASFRYSGVPSRFSGSGSGTDFTLTISSLQPEDFATYYCQQYYTYPYTFGGGTKLEIK
notes: Human IgG1 and human Ckappa
**Q.** For B2, which “EC50 (read off the curve)” value [6] is on record?
**A.** ~0.06 µg/mL

B3: cLC + hHC (chimeric light chain with humanized heavy chain) (antibody, human IgG1, V domains shown)
VH: B1 VH
VL: DIVMTQSQKFMSTSVGDRVSVTCKASQNVGTNVGWYQQKPGQSPKALIYSASFRYSGVPDRFTGSGSGTDFSLTISNVKSEDLAEYFCQQYYTYPYTFGGGTKLEIK
notes: Human IgG1 C1, C2, C3 and human Ckappa; Tested as 293 cell supernatant; also called cLH+hHC
**Q.** With B3 as the binder, how does the “EC50 (read off the curve)” value [7] read?
**A.** ~0.1 µg/mL

B4: MHM + hHC (VL with human framework 2, mouse frameworks 1 and 3) (antibody, human IgG1, V domains shown)
VH: B1 VH
VL: B3 VL with Q42K, S43A, A46L
notes: Human IgG1 and human Ckappa
**Q.** With B4 as the binder, how does the “EC50 (read off the curve)” value [6] read?
**A.** ~0.06 µg/mL

B5: MMH + hHC (VL with human framework 3, mouse frameworks 1 and 2) (antibody, V domains shown)
VH: B1 VH
VL: B2 VL with Q3V, P8Q, S9K, S10F, L11M, A13T, T20S, I21V
notes: Human IgG1 and human Ckappa
**Q.** For B5, which “EC50 (read off the curve)” value [6] is on record?
**A.** ~0.06 µg/mL

B6: hLC_KAPKA + hHC (antibody, V domains shown)
VH: B1 VH
VL: B2 VL with Q42K, S43A, L104V
notes: Human IgG1 and human Ckappa
**Q.** With B6 as the binder, how does the “EC50 (read off the curve)” value [8] read?
**A.** ~0.05 µg/mL

B7: HMM + hHC (VL with human framework 1, mouse frameworks 2 and 3) (antibody, V domains shown)
VH: B1 VH
VL: B3 VL with V3Q, Q8P, K9S, F10S, M11L, T13A, S20T, V21I
notes: Human IgG1 and human Ckappa
**Q.** For B7, which “EC50 (read off the curve)” value [6] is on record?
**A.** ~0.06 µg/mL

B8: hLC + hHC (humanized light chain with humanized heavy chain) (antibody, human IgG1, V domains shown)
VH: B1 VH
VL: B2 VL with Q42K, S43A, A46L, L104V
notes: Human IgG1 C1, C2, C3 and human Ckappa; Tested as 293 cell supernatant; also called hLH+hHC
**Q.** B8 was tested. Which “EC50 (read off the curve)” value [7] did it give?
**A.** ~0.2 µg/mL

B9: mAb202 (commercially available from R&D Systems) (antibody, V domains shown)
VH: DVRLVESGGGLVKPGGSLKLSCAAYGFTFSSYTLAWVRQTPEKRLEWVAAIDSSSYTYSPDTVRGRFTISRDNAKNTLYLQMSSLKSEDTAMYYCTRDSNWDALDYWGQGTSVIVSS
VL: B3 VL
notes: Mouse monoclonal antibody; also called original mAb; parental mAb202
**Q.** Does B9 bind [9]?
**A.** binds

From patent publication US20080317746A1 (MICROMET, published 2008)
